From patent US20150210766A1 (SAMSUNG ELECTRONICS, published 2015)
Each block holds one binder with its values, some of them ahead of it.

Experiments:
Her3-Fc (R&D Systems) = Her3-Fc (R&D Systems) (UniProt P21860); assay: SPR, Biacore T100; bispecific antibody captured (about 90 to 120 RU) by human Fab binder on a CM5 chip, Her3-Fc injected at various concentrations
[1] = target: T1, human c-Met/Fc fusion protein (R&D Systems) (human, UniProt P08581 25-932); assay: ELISA, human c-Met/Fc fusion protein coated on the plate, hybridoma culture added
T1 construct: Bought reagent; also called human c-Met/Fc protein; not shown: Fc part of the bought fusion protein, not described
T1 sequence (P08581 25-932 limits assumed): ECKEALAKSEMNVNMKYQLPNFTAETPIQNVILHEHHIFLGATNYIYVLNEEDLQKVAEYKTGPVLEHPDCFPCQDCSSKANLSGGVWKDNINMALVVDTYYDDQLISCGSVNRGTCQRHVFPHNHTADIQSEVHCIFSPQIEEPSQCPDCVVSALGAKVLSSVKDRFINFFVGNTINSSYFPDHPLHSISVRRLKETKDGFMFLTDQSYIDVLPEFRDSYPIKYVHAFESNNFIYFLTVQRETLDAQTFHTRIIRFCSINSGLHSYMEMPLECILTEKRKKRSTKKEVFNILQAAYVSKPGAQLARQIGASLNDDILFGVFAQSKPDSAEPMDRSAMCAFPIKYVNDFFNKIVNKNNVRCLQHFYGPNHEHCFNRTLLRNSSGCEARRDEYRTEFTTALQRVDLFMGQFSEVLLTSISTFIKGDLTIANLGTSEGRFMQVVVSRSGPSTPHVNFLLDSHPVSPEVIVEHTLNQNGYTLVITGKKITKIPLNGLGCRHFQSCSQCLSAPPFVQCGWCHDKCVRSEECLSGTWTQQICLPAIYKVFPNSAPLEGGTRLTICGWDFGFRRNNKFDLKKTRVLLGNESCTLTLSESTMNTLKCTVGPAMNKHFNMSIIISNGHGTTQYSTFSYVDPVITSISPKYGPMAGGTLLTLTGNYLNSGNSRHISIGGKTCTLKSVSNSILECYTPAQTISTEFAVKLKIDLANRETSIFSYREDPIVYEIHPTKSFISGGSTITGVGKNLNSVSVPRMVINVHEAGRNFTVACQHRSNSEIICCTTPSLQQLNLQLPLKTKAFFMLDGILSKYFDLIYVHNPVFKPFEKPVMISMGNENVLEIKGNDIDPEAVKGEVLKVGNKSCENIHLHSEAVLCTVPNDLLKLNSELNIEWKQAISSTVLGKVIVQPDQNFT
Method: Human c-Met/Fc fusion protein was seeded in an amount of […] (2 μg/mL)/well to microtiter plates and allowed to adhere to the surface of each well. The […] that remained unbound was removed by washing.
The hybridoma cell culture obtained in Reference Example 1.1.2 was added in an amount of […] to each well of the plates and incubated for 1 hour. The cells remaining unreacted were washed out with a sufficient amount of Tris-buffered saline and Tween 20 (TBST). Goat anti-mouse IgG-horseradish peroxidase (HRP) was added to the plates and incubated for 1 hour at room temperature. The plates were washed with a sufficient amount of TBST, followed by reacting the peroxidase with a substrate (OPD). Absorbance at 450 nm was measured on an ELISA reader.

Sequence of Her3-Fc (R&D Systems) (P21860 20-643 limits assumed): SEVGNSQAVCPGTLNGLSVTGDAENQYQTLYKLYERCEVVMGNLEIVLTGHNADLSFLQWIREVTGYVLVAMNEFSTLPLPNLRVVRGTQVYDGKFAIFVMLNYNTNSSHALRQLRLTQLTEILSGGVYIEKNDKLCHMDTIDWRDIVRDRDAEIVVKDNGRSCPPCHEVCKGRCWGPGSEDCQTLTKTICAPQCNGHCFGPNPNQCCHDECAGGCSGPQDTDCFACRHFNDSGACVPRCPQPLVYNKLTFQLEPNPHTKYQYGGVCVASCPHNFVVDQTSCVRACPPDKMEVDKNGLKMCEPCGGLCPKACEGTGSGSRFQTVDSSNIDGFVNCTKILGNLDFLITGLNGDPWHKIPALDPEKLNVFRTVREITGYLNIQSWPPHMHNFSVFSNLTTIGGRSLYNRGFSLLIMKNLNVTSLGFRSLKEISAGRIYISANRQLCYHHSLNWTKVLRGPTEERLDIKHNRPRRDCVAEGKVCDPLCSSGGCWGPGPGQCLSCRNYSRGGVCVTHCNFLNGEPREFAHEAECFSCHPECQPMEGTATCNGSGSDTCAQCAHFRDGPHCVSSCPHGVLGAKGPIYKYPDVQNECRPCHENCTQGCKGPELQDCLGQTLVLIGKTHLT

Kd (Her3-Fc (R&D Systems)): 550 pM
B1: MH3-05, anti-c-Met/anti-Her3 bispecific antibody in which the modified anti-Her3 scFv is fused at the c-terminal of L3-1Y-IgG2 (bispecific antibody, part only; not given: nothing needed for Her3 binding, not shown: another chain or arm of the molecule; small tags and cut ends)
heavy: EVQLVESGGGLVQPGGSLRLSCAASGFTFTDYYMSWVRQAPGKGLEWLGFIRNKANGYTTEYSASVKGRFTISRDNSKNTLYLQMNSLRAEDTAVYYCARDNWFAYWGQGTLVTVSSASTKGPSVFPLAPCSRSTSESTAALGCLVKDYFPEPVTVSWNSGALTSGVHTFPAVLQSSGLYSLSSVVTVPSSNFGTQTYTCNVDHKPSNTKVDKTVERKCCVECPPCPAPPVAGPSVFLFPPKPKDTLMISRTPEVTCVVVDVSHEDPEVQFNWYVDGVEVHNAKTKPREEQFNSTFRVVSVLTVVHQDWLNGKEYKCKVSNKGLPAPIEKTISKTKGQPREPQVYTLPPSREEMTKNQVSLTCLVKGFYPSDIAVEWESNGQPENNYKTTPPMLDSDGSFFLYSKLTVDKSRWQQGNVFSCSVMHEALHNHYTQKSLSLSPGKGGGGSGGGGSQVQLQESGGGLVKPGGSLRLSCAASGFTFSSYSMNWVRQAPGKGLEWVSSISSSSSYIYYADSVKGRFTISRDNAKNSLYLQMNSLRAEDTAVYYCAREDLTPFDYWGQGTLVTVSS
VL: LPVLTQPPSVSVAPGQTARITCGGDNIGSKSVHWYQQKPGQAPVLVVYDDSDRPSGIPERISGSNSGNTATLTISRVEAGDEADFYCQVWDNSVDLLFGGGTKLTVL
light: DIQMTQSPSSLSASVGDRVTITCKSSQSLLASGNQNNYLAWYQQKPGKAPKMLIIWASTRVSGVPSRFSGSGSGTDFTLTISSLQPEDFATYYCQQSYSRPYTFGQGTKVEIKRTVAAPSVFIFPPSDEQLKSGTASVVCLLNNFYPREAKVQWKVDNALQSGNSQESVTEQDSKDSTYSLSSTLTLSKADYEKHKVYACEVTHQGLSSPVTKSFNRGEC
modifications: In the real molecule the scFv-VL chain is joined covalently to the C-terminus of the heavy chain's VH (SEQ 115) through the undisclosed linker. It is written as a separate chain only because that linker has no letters.

binding result [1]: binds
B2: AbF46, mouse monoclonal antibody to c-Met (hybridoma KCLRF-BP-00220) (antibody, V domains shown)
VH: EVKLVESGGGLVQPGGSLRLSCATSGFTFTDYYMSWVRQPPGKALEWLGFIRNKANGYTTEYSASVKGRFTISRDNSQSILYLQMDTLRAEDSATYYCARDNWFAYWGQGTLVTVSA
VL: DILMTQSPSSLTVSAGEKVTMSCKSSQSLLASGNQNNYLAWHQQKPGRSPKMLIIWASTRVSGVPDRFIGSGSGTDFTLTINSVQAEDLAVYYCQQSYSAPLTFGAGTKLELK
notes: Tested as hybridoma culture in the screening ELISA; the single clone selected produces AbF46; also called mouse antibody AbF46
